According to a protein production outcome set (Wang et al. 2014):

Assay: label from the status in PepcDB records

Sequence | protein production
GRGAFGVVCKAKWRAKDVAIKQIESESERKAFIVELRQLSRVNHPNIVKLYGACLNPVCLVMEYAEGGSLYNVLHGAEPLPYYTAAHAMSWCLQCSQGVAYLHSMQPKALIHRDLKPPNLLLVAGGTVLKICDFGTACDIQTHMTNNKGSAAWMAPEVFEGSNYSEKCDVFSWGIILWEVITRRKPFDEIGGPAFRIMWAVHNGTRPPLIKNLPKPIESLMTRCWSKDPSQRPSMEEIVKIMTHLMRYFPGADEPLQYPCQYSDEGQSNSATSTGSFMDIASTNTSNKSDTNMEQVPATNDTIKRLESKLLKNQAKQQ | failed
MRDTGTSESNRSGDVVLGDDWVAPHSTVSKELRVKRARRSLFSLRGSPLTRKIITFNLIALIILVAGILYLNDARNGLVVQRAGALVGETQLVADVFEAQITGSAPVNLATGDGVDVDATLEDLSLRRGVEVFVFDTARNMVGQTKGTHVNPRLQALFEDKTGSTIITDALSGLWRAVSSIFANAPKSSAPALEQQIASLLPEALAGETRVETVLNTAGGTVIAAATPILQAGTPIGAVAMASPAGEIDALARRDRERVLQMFVVALLVSVGLSLVLASTIANPLADLAEAAELGRDRNSRRMNPGRIRIPDLSARPDEIGRLSRALRGMVSALYNRIEGNEQFAADVAHEIKNPLASLQSAVGTLRMVRREDQRDKLLSVIEHDVRRLDRLVSDISNASRLDAELVKEEEQSFNLLTMLDNLNQYLGEDARSKGIDYITDMPPDPIMIQGLEARLAQVFVNLITNAISFCEDGDAIRVWTRRRANRVLIVVEDTGPGIPDEALAKIFKRFYSQRPEEHFGNNSGLGLAISKQIVEAHGGVIWAENIRPTEADVTSDPLGARFVVGLPI | not failed
MKNIINILDDLTINKIAAGEVVERPSSVVKELIENSIDAGANKISIDIIDGGKSLIKITDNGIGIPSSEVEKSFLRHATSKIKKIDDLYDLYSLGFRGEALASISAVSKLEMTTKTKDEIIGTKIYVEGGKIISKEPIGFTNGTTIIIKDIFFNTPARQKFLKSTHAETINISDLINKLAIGNPNIQFKYTNNNKQMLNTPGDGKLVNTIRSIYGKEITENIIDVEFKCNHFKMNGYIGNNNIYRSNKNLQHIYINKRFVKSKIIIDAITESYKSIIPIGKHAVCFLNIEVDPSCIDVNIHPNKLEIKFEKEQEVYIELRDFLKVKLIHSNLIGKYATYSDKKTQPRIAINSREKSTDYKLRNNDLLESTPKNSNITKGKDEVIEVVTLSSEKPINEFQSVSEVLNASVEDDVKNINYLSEDSANDNIQEEFQVDGIKNEGNYYLGDSIKDSEEEYLCSSKRKFSLYGYSVIGVVFNTYIILSKDDSMYLLDQHAAHERILYERYMEKFYRQDINMQILLDPVVIEVSNVDMLQIENNLELFMKFGFELEIFGNNHIMVRCVPTIFGVPETEKFILQIIDNIEEITSNYDLKGERFASMACRSAIKANDKIYDIEIKSLLEQLEKCENPFTCPHGRPIMVEISKTEIEKMFKRIM | failed
MDPLNLSWYDDDLERQNWSRPFNGSDGKADRPHYNYYATLLTLLIAVIVFGNVLVCMAVSREKALQTTTNYLIVSLAVADLLVATLVMPWVVYLEVVGEWKFSRIHCDIFVTLDVMMCTASILNLCAISIDRYTAVAMPMLYNTRYSSKRRVTVMISIVWVLSFTISCPLLFGLNNADQNECIIANPAFVVYSSIVSFYVPFIVTLLVYIKIYIVLRRRRKRVNTKRSSRAFRAHLRAPLKGNCTHPEDMKLCTVIMKSNGSFPVNRRRVEAARRAQELEMEMLSSTSPPERTRYSPIPPSHHQLTLPDPSHHGLHSTPDSPAKPEKNGHAKDHPKIAKIFEIQTMPNGKTRTSLKTMSRRKLSQQKEKKATQMLAIVLGVFIICWLPFFITHILNIHCDCNIPPVLYSAFTWLGYVNSAVNPIIYTTFNIEFRKAFLKILHC | failed
QQAIADQLLEMILQSQDLHNAYRLVVEGLQRGLGVDRVLLVQNAVFPNRQSRLVAQAIAPARDIMLLDEPCADCRWLHLLGQLPHYGLWTVWEGEGEFVQLDPVQGEFCRTLGIKSLLHLPLVINQRHWGVLSLQYLHQARPWPLEDQQFAQRIAHLFCLGLMKTELWIHCQNHKNALQTVVAEGQ | failed
FAMESYFKGDSGEAELLAVAHKVQSDAWALQKAAGIAVIGLDGTLYDQVLDTITWLGAIPPRFKHLSGLQRYYAMARGGAALDMSKFFDTNYHYLVPELGPDVLGPATAAGAPLQPDFSGPLDKLARGQAVVGRERAVPILIGPVTFVSLSRGCELPLDQAVARLLPTYCALLQQLAAAGAPEVQLHEPVLATSEGAGMRAEFETAYAQMAQAAGSVPLHLVTYYDDLGAAYPWAVQLPVAAVTLDFLGPPGAAVPSQTLALLQQHGFPADKRLGAGVVDGRSVWKDDGTAVALLRALLDTGAVSSDRLVVTSSAPLQHLPYDLGLELEAPKTPEAEPHLPPALAARLGFAKQKVEEIVSVARLAASPAAAAAAAGHGAVVQLQRLQQGKGVEDHTAD | failed
MDDLASQSFPEPERAIMKATYQVLCEYGYADLTIQQIADEYGKTTTAVHYHCDTKNKLLTAFLDYLLEELADSVHNIRTTNPENRLKFLLDELLVKSKNEPVLSIALLEMQSQTPYKEPFRERFKQMAVVNRQTELDFTVSETA | failed
MAFVRYIPCRKIPRNVDQFELPCLGSLRAFFSTQKLIGDEPVLVRDFIHTALYDPIQGYFSQRSKSVGVLERSIKFNQLEGRKAYMKLLEKVYKQSDISWFTPVELFKPWYAHGIAEAILRTTNLSVPLKGVLDYIMLNAPERIYKNMSYTSIEISPSLAKIQKETVAQVGSHLSKFRVECRDASDLAGWSKVLFVQHKADSGFQFPVAMLEFENVEQQPCWVIMLEVLDNLPHDLVYSKSQLSPWMEVLVENKPESEALSELYKPLEDPLIKRCIEIVEHEDDPKLLEVLHAKLPKMSLIASDFSFLPDVKVPGERAPLVSTKKDGCSSDYSSYLDAKGDADIFFPTDFWLLERMDHYCSGWRKMEKDGTPSKKGRKRRTLTVNQDSL | failed
MSNIDFDKYRILLVNSYFQSRNAKITRFWNRATTNAKDIFHGIRTRKEFFSKIIRDFQTEFGEDFIEYLAGGELIGGITNILPIYENKMGVMERSGHIIHKKSGYHLTPDILSEYLINDVFFDNTFLKHNIEELAKADNGVHILDILNSLLKVKDDREIYREATEKLLEMLNCLESDNEQKKRRIRAGIVVYYGFGNLNLVTAAIGEFWTDYGILDDGIDLQALGIFLGDISKLYEARICMERANEIFKNNGDKIGIATSLHNLGIILHLQGNYEEAMNKYNQSLKIDEELGERHRISMSLRFLGRIEYDKGNYDDAVKLYNQSLMIAEKLGDQSGIAKLLGELGIVLLHQGNYDEAIKLYNQSLMIAEKLGDQSGIAGTLYELGKVYLIQDNYGESIEVQKRSLKIKELLGDKYGIAHSLHALGVTHEVKKEYTFALLNYLEASSIYKELNSPYSKDVSKLITDLRDKMGNEQFNKACKEFGYVPPDNI | failed
MDALEIFKTLFSLVMRFSSYLPSNEEISDMKTTELYAFLYVALFGPKKMKEIAEFLSTTKSNVTNVVDSLEKRGLVVREMDPVDRRTYRVVLTEKGKEIFGEILSNFESLLKSVLEKFSEEDFKVVSEGFNRMVEALSREGR | not failed
MKICLIDETGTGDGALSVLAARWGLEHDEDNLMALVLTPEHLELRKRDEPKLGGIFVDFVGGAMAHRRKFGGGRGEAVAKAVGIKGDYLPDVVDATAGLGRDAFVLASVGCRVRMLERNPVVAALLDDGLARGYADAEIGGWLQERLQLIHASSLTALTDITPRPQVVYLDPMFPHKQKSALVKKEMRVFQSLVGPDLDADGLLEPARLLATKRVVVKRPDYAPPLANVATPNAVVTKGHRFDIYAGTPVLEHHHHHH | not failed
MPIPKSAKSDYTKEQKDLVGNICQCKDFYKILNVDKKASPDEIRIAFRKRIREVHPDKCKHPSATEASKVVNNAFSLLMDPAKRRQYDLQ | not failed
MSRENNVQSTRAERKTLILALVAGMCSDALLSWLTMSSVPFSLFALIALVLSAQMLYQEYLAHPVAEEVPLVGLACFFVGAFGHSAFIKAQYPQEGSNFFSIVIVLLLIFWIGRKLGYIGKPR | failed
SSTQGWADGLLTDIAHVRAHISDEFLFSSASTLNEIALAADIEERTQSVDVFLGNSLFVRLVDMFGRLNTEVFTNRGASGIDGLFATASGVQRSRGKPLLMYIGDTSALYDLNSLALFSRNDLPSVLVVTNNDGGAIFDMLPVPQEHRTAYYQMPHGYQFEHAAKQFGLKYEKPTTLQMYQAMVADHLSSGQGTMLVEVQTPPSQAAELIKAFNKSLHASL | failed
MQNDFDRVFVLTGGPGSGKTTLIAALRRAGFATSVVAGRGIVRDQSSIGGTALPWSDRTLFAELMLSWEMRSYQNAVEQKGPVFFDRGVPETLGYLRLSGLPVADHVSTAAKRFRYNPRVFIAPPWPDIFAQDEERKQTPDEAKCTYHALAEIYTELGYELVPLPLAPVETRLRFVLADAGLEHHHHHH | failed
RNRRREEAARHYLECVLDGLTTGVVVFDEKGRLKTFNKAAEQILGMPLAPLWGSSRHGWHGVSAQQSLLAEVFAAIGAAAGTDKPVQVEYAAPDDAKILLGKATVLPEDNGNGVVMVIDDIT | failed
MTDKFLQFPVIDPIIFSIGPVSLRWYGTMYLIGFLAAMFMANKAADRSNGLWTRDQVSDVLFYGFLGVILGGRVGYVLFYQFEYFLSDPLYLFEIWQGGMSFHGGLLGVILAVFIFARKTNKSFLAVGDFVVPLVPIGLGMGRLGNFINAELWGRQTDVSWAMVFPTDPLQVPRHPSQLYEFALEGVVLFAILYIISRKTRSLGLASGTFLIGYGVFRSIVEFFREPDAHLGLYFSFISKGQILSIPMILAGILIIYLGYLSQQKSAIAQGDKALAAGGKSGKKTVKGNN | failed
DEWTDVKKVMALGFFDGVHLGHQAVIKQAKQIAEEKGLQTAVLTFDPHPSVVLSNIRKQVKYLTPLEDKAEKMANLGVDIMYVVRFTTQFSELSPRAFVDNYLVALNVKHVVAGFDYSYGKKGEGKMTELENYANGRFEVTIVDKQTAASDKISSTNIRRAITEGELEEANQLLGYP | not failed
MIRTAKRTELIEVAQGRRPADIVIKGGTVVNVYSGEFLRQNVAIYHDAIAYVGEKEVAVDEHTIVIDAEGMYVSPGFIEPHAHPWVLYNPVSMTAKVLPLGTTTTVNDNLFFYLHFGVDGFRQLIEDLRVLPGHFFWLVRLVSQADFPGERDWFDPRHIQELLAMDEVVGTAEVTRWPLLYQGDPFLLETIEAAKRAGKVVDGHTAGCSYEKLNSIAASGVSACHEAITAEEALHRLRLGMWTTLRHSSLRPDFPEIIRLITEKKVSTQRITMTTDGPHPGFIEREGFVDGLVRKAVELGVPPMTALQMATINAATYLQLDDEIGGIAPGKLADILLLPDLVTFQPSLVIAKGRIVARDGKLLAPLPEIDWKRYVSKKPFLFAKERLDDERLYRYPHSESDQPVPVMYFKSNVITERKDVALPSVDGYADLSHHPGLLYAALIDRNGQWVAKAILERFALDIDGMASTYNTTTELLVIGKQPEAMAAAAKRVLEMGGGIVVIDGGRPVVEIPLPFTGMMTTDDSFDTAVRFHDELLSALQERGFPFHDILYTLLFLTCDFLPGLRLIPYGLYDVKRNEILLPAEKIGEKVVK | failed
MNHPAHHGPTVTPKRRHPDSTGAAPVGIVIATRNRRASLAVTVRNLLALPERPDVLVVDNASTDDTRAMLARDFPQVRVLPLPYNRGALARTHGVRALDTPYVAFSDDDSWWAPGALGAAARHFDDHPRLGLLSARTLVGPGDAADPLNDLLADSPLGTATDLPGTQVLGFLGCAAVARRTAYLDAGGYHPLLFFGGEETLLAYDLAARGWGVTHCPDVIAHHHPHPRPRTGRPAVVRRNALLTAWLRRPLPHALARTRALAADARRDPHARHALRETLTRLPAALRARRPLPPHVERAARLLDGADGPDGPGGAVSLEHHHHHH | not failed
MAHYKAADSKREQFRRYLEKSGVLDTLTKVLVALYEEPEKPNSALDFLKHHLGAATPENPEIELLRLELAEMKEKYEAIVEENKKLKAKLAQYEPPQEEKRAE | not failed
